The supplement of paper PMC10126150
± gives the standard deviation of the averaged measurements.

System: ATP
Test: switch fluorescence ratio, 500 uM ATP over buffer (Cy3 cluster intensity, sum of 5 cycles each) (fold (ratio)); higher = stronger signal-on switching upon ATP binding; sequences stand for … in TCGTCGGCAGCGTCAGATGTGTATAAGAGACAGTTTTTTTTTTTTTTTTTTTTTTTTT…TC
Conditions: aptamer strand: ATP DNA aptamer (quencher-CACCTGGGGGAGTATTGCGGAGGAAGG + anchor), 100 nM annealed; ATP concentration: 500 uM
How it was run: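 Imaging in selection buffer was followed by imaging after 15 min with 500 uM ATP at 22 °C, for Cy3-labelled switching-strand clusters annealed to 100 nM quencher-labelled ATP aptamer on a modified Illumina MiSeq flow-cell. Five of these buffer/ATP cycles ran, separated by NaOH stripping and re-annealing. The fluorescence ratio per cluster is summed target-cycle over summed buffer-cycle Cy3 intensity, averaged per switch-domain sequence; clusters outside 100-1000 RFU were removed.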
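Note: ATP exposure 15 min at 22 °C before imaging.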

| Sequence | switch fluorescence ratio |
| --- | --- |
| GGGAAGTCTG | 0.955 ± 0.024 |
| GGGAAGTTCA | 1 ± 0.029 |
| GGGAAGTTTT | 0.978 ± 0.027 |
| GGGAATAACT | 0.998 ± 0.037 |
| GGGAATAAGC | 0.978 ± 0.034 |
| GGGAATGGGC | 0.991 ± 0.066 |
| GGGAATGTTA | 0.9902 ± 0.007 |
| GGGAATGTTT | 0.978 ± 0.03 |
| GGGAATTTTC | 1.004 ± 0.0074 |
| GGGACAAGTC | 1.023 ± 0.0067 |
| GGGACATTAT | 1 ± 0.02 |
| GGGACCTTTT | 1 ± 0.032 |
| GGGACGGGTG | 1.02 ± 0.025 |
| GGGACTATCA | 0.982 ± 0.014 |
| GGGACTATGA | 1 ± 0.021 |
| GGGACTGCGT | 0.9624 ± 0.0072 |
| GGGACTTAAC | 1.03 ± 0.014 |
| GGGACTTTAC | 1.18 ± 0.038 |
| GGGACTTTTG | 0.986 ± 0.15 |
| GGGAGAGGGG | 0.987 ± 0.02 |
| GGGAGCAAGG | 1.1 ± 0.018 |
| GGGAGCCACG | 1.02 ± 0.036 |
| GGGAGCCCGG | 0.989 ± 0.038 |
| GGGAGCCGGG | 1.03 ± 0.015 |
| GGGAGCCTAT | 1 ± 0.042 |

| Sequence | switch fluorescence ratio |
| --- | --- |
| GGGAGCGTTG | 1.01 ± 0.016 |
| GGGAGGCAGG | 1.07 ± 0.029 |
| GGGAGGCATG | 0.936 ± 0.13 |
| GGGAGGGAGG | 0.988 ± 0.021 |
| GGGAGGGCA | 1 ± 0.011 |
| GGGAGGGCAA | 0.986 ± 0.013 |
| GGGAGGGGGC | 1.01 ± 0.075 |
| GGGAGGGGTG | 1.02 ± 0.064 |
| GGGAGGGTGA | 0.99 ± 0.025 |
| GGGAGGGTGT | 1.09 ± 0.02 |
| GGGAGGTCGG | 1.01 ± 0.025 |
| GGGAGGTTGT | 0.966 ± 0.028 |
| GGGAGTACGT | 1 ± 0.019 |
| GGGAGTAGCG | 0.997 ± 0.022 |
| GGGAGTAGGG | 0.998 ± 0.015 |
| GGGAGTATAG | 0.9907 ± 0.0089 |
| GGGAGTATAT | 0.992 ± 0.016 |
| GGGAGTCCAA | 0.995 ± 0.019 |
| GGGAGTCTTG | 0.987 ± 0.015 |
| GGGAGTGGGC | 0.87939 ± 0.00069 |
| GGGATAAAAT | 1.01 ± 0.017 |
| GGGATAATTT | 0.988 ± 0.017 |
| GGGATAGAGA | 1.02 ± 0.03 |
| GGGATAGATC | 1.05 ± 0.016 |
| GGGATATATT | 0.9914 ± 0.0074 |

| Sequence | switch fluorescence ratio |
| --- | --- |
| GGGATCAGCT | 1.006 ± 0.0046 |
| GGGATCCATG | 1.01 ± 0.019 |
| GGGATCGCTA | 1 ± 0.018 |
| GGGATCTGGT | 1.002 ± 0.0098 |
| GGGATGATAG | 0.959 ± 0.032 |
| GGGATGCCAA | 0.9794 ± 0.0018 |
| GGGATGCCCT | 1.01 ± 0.027 |
| GGGATGGATA | 1.03 ± 0.085 |
| GGGATGTTAA | 0.976 ± 0.038 |
| GGGATGTTAT | 1.03 ± 0.014 |
| GGGATTGAAT | 1.01 ± 0.032 |
| GGGATTGAGC | 1.03 ± 0.041 |
| GGGATTGAGG | 1.01 ± 0.032 |
| GGGATTGTTG | 0.995 ± 0.041 |
| GGGATTTGAT | 0.98 ± 0.028 |
| GGGATTTTTA | 0.987 ± 0.018 |
| GGGCAAGGAT | 1.015 ± 0.0028 |
| GGGCAAGGCG | 1.006 ± 0.0092 |
| GGGCAAGGTT | 0.9682 ± 0.0065 |
| GGGCAATCGT | 1.021 ± 0.0063 |
| GGGCAATGAG | 1.09 ± 0.023 |
| GGGCACGTGG | 0.995 ± 0.035 |
| GGGCAGAAAG | 1.01 ± 0.075 |
| GGGCAGAGGC | 1.06 ± 0.029 |
| GGGCAGGCTG | 1 ± 0.023 |

| Sequence | switch fluorescence ratio |
| --- | --- |
| GGGCAGGTTC | 1.08 ± 0.085 |
| GGGCAGTTTT | 0.991 ± 0.023 |
| GGGCATAGAT | 1.03 ± 0.05 |
| GGGCATAGGA | 1.03 ± 0.097 |
| GGGCATATGG | 1.05 ± 0.015 |
| GGGCATCGGG | 0.991 ± 0.013 |
| GGGCATGAAT | 0.965 ± 0.016 |
| GGGCATGCAG | 0.966 ± 0.018 |
| GGGCATGCGT | 0.973 ± 0.042 |
| GGGCATGTTA | 0.9692 ± 0.0032 |
| GGGCATTGAA | 0.9895 ± 0.0022 |
| GGGCATTGCG | 0.9667 ± 0.0091 |
| GGGCATTGTT | 1.02 ± 0.043 |
| GGGCCAGGGC | 1.02 ± 0.02 |
| GGGCCAGTGC | 1.03 ± 0.043 |
| GGGCCAGTTG | 1.0149 ± 0.00024 |
| GGGCCCGGGT | 0.994 ± 0.037 |
| GGGCCCTGGG | 0.994 ± 0.059 |
| GGGCCCTTTT | 0.976 ± 0.019 |
| GGGCCGGTTT | 1 ± 0.026 |
| GGGCCTGGTA | 0.973 ± 0.03 |
| GGGCCTTGAG | 1.031 ± 0.008 |
| GGGCCTTTAT | 1.017 ± 0.0089 |
| GGGCGATGGG | 1.02 ± 0.084 |
| GGGCGCCCCA | 0.976 ± 0.013 |

| Sequence | switch fluorescence ratio |
| --- | --- |
| GGGCGCCCCC | 1.08 ± 0.14 |
| GGGCGCGTAT | 1.03 ± 0.045 |
| GGGCGGGCTG | 1.006 ± 0.0084 |
| GGGCGGGTCT | 1.01 ± 0.046 |
| GGGCGGGTTG | 1 ± 0.0036 |
| GGGCGGTCTT | 1.06 ± 0.097 |
| GGGCGGTTTT | 0.993 ± 0.043 |
| GGGCGTAAGG | 1.01 ± 0.047 |
| GGGCGTGGTT | 0.965 ± 0.017 |
| GGGCGTGTTT | 1 ± 0.031 |
| GGGCGTTCTG | 1.04 ± 0.023 |
| GGGCGTTTCA | 1.02 ± 0.02 |
| GGGCTAAAGA | 1.01 ± 0.013 |
| GGGCTAAGAG | 1.05 ± 0.038 |
| GGGCTAAGGC | 0.9923 ± 0.0037 |
| GGGCTAGGCT | 0.9684 ± 0.006 |
| GGGCTAGGGA | 0.972 ± 0.041 |
| GGGCTAGTGG | 1.02 ± 0.036 |
| GGGCTAGTTC | 1.05 ± 0.077 |
| GGGCTCCATG | 0.9825 ± 0.0044 |
| GGGCTGGATG | 0.9932 ± 0.0047 |
| GGGCTGGGTA | 0.993 ± 0.018 |
| GGGCTGGTTT | 0.981 ± 0.02 |
| GGGCTTAAGG | 0.97 ± 0.015 |
| GGGCTTGGAG | 1.012 ± 0.00086 |

| Sequence | switch fluorescence ratio |
| --- | --- |
| GGGCTTGGCT | 0.9851 ± 0.0065 |
| GGGGAAAAGG | 1 ± 0.017 |
| GGGGAAAATA | 1.007 ± 0.0048 |
| GGGGAAACAA | 0.99 ± 0.024 |
| GGGGAAACAT | 1.08 ± 0.013 |
| GGGGAAACGG | 1.06 ± 0.085 |
| GGGGAAGAGG | 0.983 ± 0.011 |
| GGGGAAGCCG | 1.01 ± 0.027 |
| GGGGAAGGTA | 0.978 ± 0.019 |
| GGGGAATAAG | 1.01 ± 0.053 |
| GGGGAATGCA | 1.01 ± 0.034 |
| GGGGAATGCG | 1.01 ± 0.0065 |
| GGGGAATTAT | 1.03 ± 0.0058 |
| GGGGACAAGT | 1.0212 ± 0.00058 |
| GGGGACATAA | 0.997 ± 0.011 |
| GGGGACATGG | 1.07 ± 0.11 |
| GGGGACCGCG | 0.969 ± 0.016 |
| GGGGACCTAC | 1.08 ± 0.022 |
| GGGGACGAGG | 0.999 ± 0.028 |
| GGGGACGCTG | 0.98 ± 0.012 |
| GGGGACGGAT | 1.04 ± 0.052 |
| GGGGACTGTA | 1.04 ± 0.061 |
| GGGGAGATGT | 1.01 ± 0.014 |
| GGGGAGGGGG | 0.999 ± 0.044 |
| GGGGAGGTAG | 0.985 ± 0.014 |

| Sequence | switch fluorescence ratio |
| --- | --- |
| GGGGAGTAGG | 1.03 ± 0.049 |
| GGGGAGTAGT | 1.01 ± 0.024 |
| GGGGAGTTTA | 1.027 ± 0.0017 |
| GGGGAGTTTG | 1.01 ± 0.064 |
| GGGGATAACA | 1.028 ± 0.00063 |
| GGGGATAGAG | 1.01 ± 0.015 |
| GGGGATAGTG | 0.997 ± 0.011 |
| GGGGATATGC | 0.995 ± 0.048 |
| GGGGATGAAA | 0.989 ± 0.011 |
| GGGGATGCAT | 1.01 ± 0.059 |
| GGGGATGGGA | 1.01 ± 0.033 |
| GGGGATTAGT | 0.997 ± 0.043 |
| GGGGATTGAA | 0.994 ± 0.018 |
| GGGGCAAGAT | 1.52 ± 0.78 |
| GGGGCACATT | 0.9885 ± 0.0046 |
| GGGGCAGACT | 1.03 ± 0.018 |
| GGGGCAGGAT | 1.22 ± 0.34 |
| GGGGCAGGGT | 1.03 ± 0.064 |
| GGGGCAGTAG | 1.04 ± 0.046 |
| GGGGCATAGG | 0.9777 ± 0.0015 |
| GGGGCCCATG | 0.992 ± 0.021 |
| GGGGCCGGCG | 1.08 ± 0.11 |
| GGGGCCGTTT | 0.973 ± 0.03 |
| GGGGCGACTA | 1.03 ± 0.052 |
| GGGGCGAGAG | 0.9939 ± 0.0046 |

| Sequence | switch fluorescence ratio |
| --- | --- |
| GGGGCGAGTG | 1 ± 0.035 |
| GGGGCGCAGG | 0.993 ± 0.011 |
| GGGGCGCCTG | 1.01 ± 0.048 |
| GGGGCGCGAC | 0.993 ± 0.085 |
| GGGGCGGATT | 0.984 ± 0.014 |
| GGGGCGGCCT | 0.979 ± 0.04 |
| GGGGCGGGCC | 0.971 ± 0.021 |
| GGGGCGGTCC | 1.04 ± 0.043 |
| GGGGCGTACG | 1.05 ± 0.2 |
| GGGGCGTCGT | 1.02 ± 0.029 |
| GGGGCGTCTG | 1.04 ± 0.06 |
| GGGGCGTTAG | 1.002 ± 0.0065 |
| GGGGCTAGCG | 0.99 ± 0.02 |
| GGGGCTCAGA | 0.993 ± 0.011 |
| GGGGCTCTGT | 1 ± 0.012 |
| GGGGCTTAGT | 1.03 ± 0.017 |
| GGGGCTTATC | 1.03 ± 0.043 |
| GGGGGAACCG | 0.994 ± 0.08 |
| GGGGGAACGC | 0.998 ± 0.054 |
| GGGGGAAGAG | 1.01 ± 0.021 |
| GGGGGAAGGA | 0.995 ± 0.036 |
| GGGGGAATA | 0.993 ± 0.051 |
| GGGGGAATGC | 1.07 ± 0.11 |
| GGGGGACTGG | 0.981 ± 0.019 |
| GGGGGACTTA | 0.998 ± 0.043 |
